In the supplement of paper PMC11780869:

Test system: Bacillus subtilis
Test: cleaved RNA product abundance (RNA/gDNA barcode ratio) relative to median wild-type variant (ratio to wild type); higher = more accumulation of the downstream cleavage product
Settings: cleavage site: cggR-gapA (positions -7 to +36 mutated)
How it was run: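 Cleaved product abundance was measured with barcoded reporter mRNAs (truncated aprE or tetM) carrying mutagenized RNase Y cleavage-site windows in the B. subtilis chromosome. Cultures in LB at 37°C grew from OD600 0.0003 to 0.3. Gel-selected cleaved RNA was reverse transcribed and barcode-sequenced with genomic DNA barcodes, and the RNA:gDNA barcode ratio per construct was scaled to the median construct bearing the unmutated site.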

[1] = experiment (reporter, strain, medium): exp 2b: truncated aprE reporter, strain BJT200
[2] = experiment (reporter, strain, medium): exp 4a: truncated aprE reporter, strain BJT201 with 2% xylose (RNase J1 expressed)

Row | Sequence | cleaved RNA product abundance [1] | cleaved RNA product abundance [2] | cleaved RNA product abundance (experiment (reporter, strain, medium): exp 6: tetM reporter, strain 168)
1 | ACAGACGAAGGAGCCGCAAAGAAGTTATTAAGGGAAGAATAATCCCTCAACATAAATATCTCTCACTTATTTAAA | 0.133 | 0.257 | 
2 | ACAGACGAAGGAGCCGCAAAGAAGTTATTAAGGGAAGAATAATCCCTCAATATAAAAATCTCTCACTTATTTAAA |  | 0.563 | 
3 | ACAGACGAAGGAGCCGCAAAGAAGTTATTAAGGGAAGAATAATCCCTCAATATAAAGATCTCTCACTTATTTAAA |  | 0.495 | 
4 | ACAGACGAAGGAGCCGCAAAGAAGTTATTAAGGGAAGAATAATCCCTCAATATAAATAACTCTCACTTATTTAAA |  | 0.434 | 
5 | ACAGACGAAGGAGCCGCAAAGAAGTTATTAAGGGAAGAATAATCCCTCAATATAAATATCTCTCACTTATTTAAA | 0.485 | 0.633 | 0.691
6 | ACAGACGAAGGAGCCGCAAAGAAGTTATTAAGGGAAGAATAATCCCTCAATATAAATTTCTCTCACTTATTTAAA | 0.471 |  | 
7 | ACAGACGAAGGAGCCGCAAAGAAGTTATTAAGGGAAGAATAATCCCTCAATATAATTATCTCTCACTTATTTAAA | 0.292 | 0.314 | 
8 | ACAGACGAAGGAGCCGCAAAGAAGTTATTAAGGGAAGAATAATCCCTCAATATATATATCTCTCACTTATTTAAA | 0.393 | 0.563 | 
9 | ACAGACGAAGGAGCCGCAAAGAAGTTATTAAGGGAAGAATAATCCCTCAATATGAATATCTCTCACTTATTTAAA |  | 0.0705 | 
10 | ACAGACGAAGGAGCCGCAAAGAAGTTATTAAGGGAAGAATAATCCCTCACTATAAATATCTCTCACTTATTTAAA | 0.187 |  | 
11 | ACAGACGAAGGAGCCGCAAAGAAGTTATTAAGGGAAGAATAATCCCTCAGTATAAATATCTCTCACTTATTTAAA | 0.153 | 0.29 | 
12 | ACAGACGAAGGAGCCGCAAAGAAGTTATTAAGGGAAGAATAATCCCTCATTATAAATATCTCTCACTTATTTAAA | 0.208 | 0.216 | 
13 | ACAGACGAAGGAGCCGCAAAGAAGTTATTAAGGGAAGAATAATCCCTCCATATAAATATCTCTCACTTATTTAAA |  | 0.202 | 
14 | ACAGACGAAGGAGCCGCAAAGAAGTTATTAAGGGAAGAATAATCCCTCGATATAAATATCTCTCACTTATTTAAA |  | 0.521 | 
15 | ACAGACGAAGGAGCCGCAAAGAAGTTATTAAGGGAAGAATAATCCCTCTATATAAATATCTCTCACTTATTTAAA |  | 0.239 | 
16 | ACAGACGAAGGAGCCGCAAAGAAGTTATTAAGGGAAGAATAATCCCTGAATATAAATATCTCTCACTTATTTAAA |  | 0.374 | 
17 | ACAGACGAAGGAGCCGCAAAGAAGTTATTAAGGGAAGAATAATCCCTTAATATAAATATCTCTCACTTATTTAAA | 1.05 | 0.952 | 
18 | ACAGACGAAGGAGCCGCAAAGAAGTTATTAAGGGAAGAATAATCCGTCAATATAAATATCTCTCACTTATTTAAA | 0.0722 |  | 
19 | ACAGACGAAGGAGCCGCAAAGAAGTTATTAAGGGAAGAATAATCCTTCAATATAAATATCTCTCACTTATTTAAA | 0.13 | 0.144 | 
20 | ACAGACGAAGGAGCCGCAAAGAAGTTATTAAGGGAAGAATAATCGCTCAATATAAATATCTCTCACTTATTTAAA |  | 0.114 | 
21 | ACAGACGAAGGAGCCGCAAAGAAGTTATTAAGGGAAGAATAATCTCTCAATATAAATATCTCTCACTTATTTAAA | 0.124 | 0.201 | 
22 | ACAGACGAAGGAGCCGCAAAGAAGTTATTAAGGGAAGAATAATGCCTCAATATAAATATCTCTCACTTATTTAAA | 0.0918 | 0.132 | 
23 | ACAGACGAAGGAGCCGCAAAGAAGTTATTAAGGGAAGAATAATTCCTCAATATAAATATCTCTCACTTATTTAAA | 0.165 | 0.21 | 
24 | ACAGACGAAGGAGCCGCAAAGAAGTTATTAAGGGAAGAATACTCCCTCAATATAAATATCTCTCACTTATTTAAA | 0.632 | 1.01 | 
25 | ACAGACGAAGGAGCCGCAAAGAAGTTATTAAGGGAAGAATAGTCCCTCAATATAAATATCTCTCACTTATTTAAA |  | 0.594 | 
26 | ACAGACGAAGGAGCCGCAAAGAAGTTATTAAGGGAAGAATATTCCCTCAATATAAATATCTCTCACTTATTTAAA | 0.797 | 0.603 | 
27 | ACAGACGAAGGAGCCGCAAAGAAGTTATTAAGGGAAGAATGATCCCTCAATATAAATATCTCTCACTTATTTAAA |  | 0.925 | 
